The text below walks through data of the supplement of paper PMC12042874.

± gives the uncertainty stated by the source.

This data set is described as follows: amyloid nucleation score (Sup35N fusion, yeast selection) (log enrichment); library NNK3; higher = more nucleation; inactive = no reads after selection. In outline:
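In psi-negative yeast, Sup35N fusions carrying peptides of 20 random codons were induced with 100 μM copper sulfate for 24 hours. The cells then grew 7 days at 30°C on medium lacking adenine and uracil, and plasmid inserts from input and output were Illumina-sequenced, excluding sequences with under 100 input reads. Nucleation score is the DiMSum log enrichment of output over input reads, centred on the mode score of non-aggregating sequences.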

As for RFLYRYG, the amyloid nucleation score entry is “inactive”.

For YDTAVYIIELGCNDNKSWVR, the amyloid nucleation score entry was “inactive”.

For the substance RGICGNQLCRVMPLLNPHGC, the amyloid nucleation score result is “inactive”.

Regarding VLCAYK, the amyloid nucleation score result is “inactive”.

With GLLNSD, the amyloid nucleation score entry was “inactive”.

For the substance ALNLVLLLCVTRRSRLSQSS, the amyloid nucleation score result was “inactive”.

For MLLYYEEGLCIFLLSLNPVC, the amyloid nucleation score entry is “inactive”.

As to GCLDQFGCGGTPVKVFATNV, the amyloid nucleation score is -1.39 ± 2.5.

TYRLAVLS: the amyloid nucleation score result was “inactive”.

Take GGLCRGYQDMIMLWNMLQKQ: the amyloid nucleation score result is “inactive”.

IRPSHYIYLRTN: the amyloid nucleation score result was “inactive”.

As to DLILWFPL, the amyloid nucleation score result was “inactive”.

For the substance ELISRMSFRSLCLAFFISVC, the amyloid nucleation score entry was “inactive”.

With GISFFIMFILVPLFRKGVKV, the amyloid nucleation score entry was “inactive”.

Consider RAALLGVSADFTKHTTRVWE, for which the amyloid nucleation score entry was “inactive”.

With YGETAMRRSLTSLYNHMSLN, the amyloid nucleation score entry was “inactive”.

TSRRVCLQ: the amyloid nucleation score result is “inactive”.

Regarding HRYYCRLVFVEQTRDNIQPW, the amyloid nucleation score result is “inactive”.

Turning to VYQSTSKF, the amyloid nucleation score entry was “inactive”.

With YVCRRVSQDVRNLTKSVMCV, the amyloid nucleation score result was “inactive”.

As for TQGYVFKELAGVSRYTEA, the amyloid nucleation score entry was “inactive”.

NALMKSVTFWCSAGISISRL: the amyloid nucleation score was 1.26 ± 0.11.

Turning to DSLIVCTVPHGLDVVSTRRV, the amyloid nucleation score entry is “inactive”.

Take AFIFGCHNGTFKYGKYTCRG: the amyloid nucleation score entry is “inactive”.

On to KRYMIPKIYERNENYSFEQI, for which the amyloid nucleation score result is “inactive”.

For the substance VIHSLLALTDLMSKSYLTIY, the amyloid nucleation score result was “inactive”.

Consider KYFRARYHSPSEWLWSMIDW, for which the amyloid nucleation score result was “inactive”.

In the case of LSTWSHPSCDRTYVNLKNIV, the amyloid nucleation score result was “inactive”.

LPGCSTWFGVFFIHDFNLTL showed an amyloid nucleation score of 1.69 ± 0.091.

In turn, EYSFSLWSVSPAYTHITYGG had an amyloid nucleation score of -0.192 ± 0.71.

With VFLYTNKYRYGCCGFAFTPF, the amyloid nucleation score entry was “inactive”.

On to INFSCLLLKHLFRWVRPYLS, for which the amyloid nucleation score entry was “inactive”.

Take KFVLETFCHSKPRLVLVNHD: the amyloid nucleation score entry is “inactive”.

In the case of IATDRSSKVLSFHT, the amyloid nucleation score entry was “inactive”.

On to RLNGRDHL, for which the amyloid nucleation score entry was “inactive”.

For MSFWY, the amyloid nucleation score entry is “inactive”.

As for YFNLPISW, the amyloid nucleation score was -0.316 ± 0.7.

For the substance WWRDGDIRCKTSLNLGKRSF, the amyloid nucleation score result was “inactive”.

On to WDCVNSAHWVLDMFSNSYVS, for which the amyloid nucleation score result was “inactive”.

With NFTMNLIIGCF, the amyloid nucleation score came out at 1.3 ± 0.12.

Regarding NVNEQSHPM, the amyloid nucleation score result is “inactive”.

EEVAGSTYIISSVVVYSRAG displayed an amyloid nucleation score of 1.57 ± 0.14.

For the substance SDTLYFVCSVTWQRFYKMID, the amyloid nucleation score entry is “inactive”.

In the case of WQTMPGVRDGCAECEIYWG, the amyloid nucleation score result was “inactive”.

With WQTTDRLFSVKKSALLVGFC, the amyloid nucleation score result is “inactive”.

Turning to SLCDSVGSKSVF, the amyloid nucleation score result was “inactive”.

As for HFSSYAFLRTWTLYRHLTFM, the amyloid nucleation score result is “inactive”.

On to LMILLGSKFRNANGTTSMLK, for which the amyloid nucleation score result was “inactive”.

Regarding LVKRCVVGFTHFPTIYTCIQ, the amyloid nucleation score entry is “inactive”.

Consider QQEKLCLKHTSQVDI, for which the amyloid nucleation score result was “inactive”.

With DSKMLCCCCWPVRN, the amyloid nucleation score is 1.42 ± 0.12.

Turning to LTSGVNRISQQPWLSLVDIG, the amyloid nucleation score entry is “inactive”.

Turning to HVFLLHVMAFYFDLSCFG, the amyloid nucleation score result was “inactive”.

As for DFRSSRLHSIITTQFIYFYD, the amyloid nucleation score entry was “inactive”.

GNSVRIAWQVWCTLCMTRQW came in with an amyloid nucleation score of 0.356 ± 0.22.

With EEMVSDRVRMLVTINHR, the amyloid nucleation score was 0.661 ± 0.27.

Regarding LFVMSLFGHLGLQIYRCLAL, the amyloid nucleation score entry is “inactive”.

As for LGRYWHVIKLDLVPHMKWCE, the amyloid nucleation score entry was “inactive”.

Turning to YGRLLVGFLTITV, the amyloid nucleation score result is “inactive”.

As for LVSDEPNLGFDN, the amyloid nucleation score entry was “inactive”.

With HYLAIYGVGCCNFYSYTAVC, the amyloid nucleation score was 1.28 ± 0.085.

In turn, GSYSNAHTPQF had an amyloid nucleation score of 0.695 ± 0.2.

On to GAVFSEWTQVRSCDCDGIDK, for which the amyloid nucleation score entry is “inactive”.

Regarding WDHTA, the amyloid nucleation score entry was “inactive”.

For VAQFDRNLKPKVNYAVNELQ, the amyloid nucleation score entry is “inactive”.

For the substance ALVLNRVLRLDVGVSSGCRL, the amyloid nucleation score entry was “inactive”.

With VKISYDKSRHVCLCGFSSM, the amyloid nucleation score amounted to 2.37 ± 0.077.

For PLWSRCLYRLSAGGACSVWK, the amyloid nucleation score result was “inactive”.

Turning to CHYFNNLACYGSRIEMT, the amyloid nucleation score entry was “inactive”.

As to VIFFSRSAYYKVISGRVI, the amyloid nucleation score entry was “inactive”.

As for CFLRKTSNASLIHPSRDTNN, the amyloid nucleation score result is “inactive”.

With DPVMTACNALMTSVS, the amyloid nucleation score was -0.319 ± 1.3.

As for LPTCYSF, the amyloid nucleation score result was “inactive”.

As to NHYWQ, the amyloid nucleation score entry was “inactive”.

For the substance RQERCGSALPCCCKMIDRRA, the amyloid nucleation score entry is “inactive”.

Take QLVLPSFMVTLSCG: the amyloid nucleation score entry is “inactive”.

As for MTVRETLYWVRS, the amyloid nucleation score entry is “inactive”.

As to LNRWCCFSVITMCLMANFDA, the amyloid nucleation score worked out at 2 ± 0.089.

On to RKDLCDFSYLHGDPGAKPEL, for which the amyloid nucleation score result was “inactive”.

For the substance KVADSVIEFMLTCWGIRQDS, the amyloid nucleation score result is “inactive”.

In turn, SSNESGLSFGSEFHMLGWHG registered an amyloid nucleation score of 0.075 ± 0.35.

In the case of YHTYKDSRTGFFMGQHSCMS, the amyloid nucleation score result was “inactive”.

Take NISLLWDGAFCIYVCLLWRG: the amyloid nucleation score was -0.438 ± 0.9.

As to MKDMSFTYLLFKSHCAWVSL, the amyloid nucleation score result is “inactive”.

For the substance TCRITP, the amyloid nucleation score entry was “inactive”.

Turning to SKFLVNGAGLDELDVLVCLL, the amyloid nucleation score entry was “inactive”.

As to FGWAWPFFTKVHHTSTV, the amyloid nucleation score result is “inactive”.

For the substance GFIVSRERLNVMVLFSVYW, the amyloid nucleation score entry was “inactive”.

As for DMIKCGLSPDRVFIWYWPNK, the amyloid nucleation score result was “inactive”.

Consider FVRGCSRNSTRDCFYK, for which the amyloid nucleation score entry was “inactive”.

LWYHWHNA: the amyloid nucleation score entry was “inactive”.

For the substance SSMSSTSALLYMHDNFWCAI, the amyloid nucleation score entry is “inactive”.

With SLILENLFVSFLTSKIILGF, the amyloid nucleation score result is “inactive”.

With NTRMDNLTNAWRAQYALSP, the amyloid nucleation score entry was “inactive”.

As for RHAYQRWLIFC, the amyloid nucleation score result is “inactive”.

As for QFIEMSSQYFSMRYVDRVAD, the amyloid nucleation score entry was “inactive”.

With WYGVVDVDW, the amyloid nucleation score result is “inactive”.
